Test results reported in patent US20260069656A1, “Nutritive Polypeptides and Formulations Thereof, and Methods of Production and Use Thereof” (Axcella Health Inc., priority 2013, published 2026).

Key:
[1] = Thermostability, ProteoStat Thermal Shift Stability Kit, temperature of aggregation; format: physicochemical
Procedure: Thermostability. The thermostability of proteins in a buffer cocktail of Citric Acid and Dibasic Sodium Phosphate over a pH range of 2.8 to 7.1 (preparation described above in Table E31B) was determined using the ProteoStat® Thermal Shift Stability Kit (Enzo Life Sciences) according to the manufacturer's standard protocol. Briefly, protein solutions (˜10 mg/ml) containing 1× ProteoStat TS Detection Reagent were heated from 25° C. to 95° C. at a rate of 0.5° C. per 30 sec using a real-time PCR (rtPCR) thermocycler (BioRad) equipped with a plate reader (SynergyMx, Biotek) while monitoring the fluorescence with a Texas Red filter.

[2] = pH solubility screen in Citric Acid / Dibasic Sodium Phosphate buffers; format: physicochemical; conditions: for pH Range where Protein is >80% detected as Soluble and A650 <1 OD: Low: lower pH of range; for pH Range where Protein is >80% detected as Soluble and A650 <1 OD: High: upper pH of range
Procedure: pH Solubility. […] Protein was either lyophilized and then resuspended in buffer cocktail mixtures, or concentrated and then spiked into buffer cocktail mixtures at a final protein concentration of 5 to 30 mg/ml. As a control, protein was also dissolved in a solution of 8 M urea. Protein solutions were shaken for 10 min at room temperature. Turbidity of proteins was determined by measuring the absorbance of protein solutions at 650 nm. The protein solution was then centrifuged for 10 min at 1100×g to pellet undissolved or precipitated protein. The soluble protein fraction (supernatant) was sampled and protein concentration was measured by one or more of the following methods: Coomassie Plus Protein Assay (Pierce), Chip electrophoresis, gel electrophoresis, and/or absorbance at 280 nm. The pH range over which select proteins remained greater than 80% soluble as determined by Bradford and the A650 value are listed in Table E31C.

[3] = Intact half-life during simulated gastric fluid (SGF) digestion; conditions: for SGF Half-life (t½): SGF pH 1.5, pepsin:polypeptide 1:20 w/w, 37° C., produced in E. coli unless otherwise noted

B1: SEQID-00100: nutritive polypeptide (protein, listed as Lactobacillus acidophilus)
chain: MSEEEIFNKIKDLIADNFEVDKDSITENTNFMNDLDADSIDLVEFILQLEDEFGAEIPDDEAEKIKTVGDAVSYIKSHQG
- Tagg pH 2.8 ([1]; pH 2.8, NS = protein not soluble): 95
- Tagg pH 3.7 ([1]; pH 3.7, NS = protein not soluble): 95
- Tagg pH 3.9 ([1]; pH 3.9, NS = protein not soluble): 95
- Tagg pH 4.3 ([1]; pH 4.3, NS = protein not soluble): 83
- Tagg pH 4.6 ([1]; pH 4.6, NS = protein not soluble): 84
- Tagg pH 5.0 ([1]; pH 5.0, NS = protein not soluble): 95
- Tagg pH 5.6 ([1]; pH 5.6, NS = protein not soluble): 95
- Tagg pH 6.0 ([1]; pH 6.0, NS = protein not soluble): 95
- Tagg pH 6.5 ([1]; pH 6.5, NS = protein not soluble): 95
- Tagg (pH 7.1) ([1]; heated 25° C. to 95° C., NS = protein not soluble): >95
- pH Range where Protein is >80% detected as Soluble and A650 <1 OD: Low [2]: 4.3
- pH Range where Protein is >80% detected as Soluble and A650 <1 OD: High [2]: 7.1
- SGF Half-life (t½) [3]: 120 s

B2: SEQID-00226: nutritive polypeptide (protein, listed as Bos taurus)
chain: QLQALQAQLTDTKKKVDDDLGTIENLEEAKKKLLKDVEVLSQRLEEKALAYDKLEKTKTRLQQELDDLLVDLDHQRQIVSNLEKKQKKFDQLLAEEKNIS
- Tagg (pH 7.1) ([1]; heated from 25° C. to 95° C.): >95
- pH Range where Protein is >80% detected as Soluble and A650 <1 OD: Low [2]: 2.6
- pH Range where Protein is >80% detected as Soluble and A650 <1 OD: High [2]: 9.1
- SGF Half-life (t½) [3]: 42 s

B3: SEQID-00287: nutritive polypeptide (protein, listed as Saccharomyces cerevisiae)
chain: LVLGALLDTSHKFRNLDKDLCEKCAKCISMIGVLDVTKHEFKRTTYSENEVYDLNDSVQTIKFLIWVINDILV
modifications: strain ATCC 204508 / S288c
notes: nutritive polypeptide
- pH Range where Protein is >80% detected as Soluble and A650 <1 OD: Low [2]: 6.2
- pH Range where Protein is >80% detected as Soluble and A650 <1 OD: Other [2]: 2.6
- pH Range where Protein is >80% detected as Soluble and A650 <1 OD: High [2]: 9.1
- SGF Half-life (t½) [3]: 180 s

B4: SEQID-00510: nutritive polypeptide naturally produced in Turkey, recombinantly expressed in E. coli (protein)
chain: MVPIAEKMAEKQEEPSNTQNGEPDNAEEGEGKKKKKVKREDLPPFEIVTGERLPAIFFKFQFRNVEYSSGRNKTFLCYVVETQGKESTTSRGYLEDEHAASHAEIAFFNTILPKCESSLRYNITWYVSSSPCVTCADRISETLRKNKNLRLTIMVGRLFMWEEPEMQAALKKMKSAGCKLRIMKPQDFEYVWQNFVEQEEGEEAKAFVPWEDIQENFQYYEEKLAEILQ
modifications: Meleagris gallopavo
notes: nutritive polypeptide naturally produced in Turkey, recombinantly expressed in E. coli
- pH Range where Protein is >80% detected as Soluble and A650 <1 OD: Low [2]: 6.5
- pH Range where Protein is >80% detected as Soluble and A650 <1 OD: Other [2]: 2.8
- pH Range where Protein is >80% detected as Soluble and A650 <1 OD: High [2]: 7.1
- SGF Half-life (t½) [3]: 18 s
- Half-life ([3]; purified proteins, chip electrophoresis, SGF): 18 s

B5: SEQID-00302: nutritive polypeptide (protein)
chain: MAKKTVANLSASELSGKKVLVRADFNVPLDNGSISDDTRIRAALPTIQDLTSKGAKVILSSHFGRPQGQVVESMRLTPVAARLSELLGKTVKKCDDCIGEEVAVAVGAMSDGDVLLLENVRFHAAEEKNDPEFAKQLASVADLYVNDAFGTAHRAHASTEGVTKYLSPCVAGYLIEKELQFLQGAIESPQRPLAAIIGGSKVSSKIGVIEALLDKCDKLLLGGGMIFTFYKARGLSVGNSLVEEDKLELAKSLEAKAKEKGVTMLLPTDVVLADKFAADADSQTVSVEAIPDGWMGLDIGPDSVKVFQEALGDCKTVLWNGPMGVFEFEKFAAGTRAIAQTLAELTSTGTTTIIGGGDSVAAVEQLNLGEKMSHISTGGGASLELLEGKQLPGIVALDDA
modifications: Arthrospira platensis C1
notes: nutritive polypeptide
- Tagg (pH 7.1) ([1]; heated from 25° C. to 95° C.): 46
- SGF Half-life (t½) [3]: 12 s

B6: SEQID-00305: nutritive polypeptide (protein, listed as Bos taurus)
chain: MPHQYPALTPEQKKELCDIAHRIVAPGKGILAADESTGSIAKRLQSIGTENTEENRRFYRQLLLTADDRVNPCIGGVILFHETLYQKADDGRPFPQVIKAKGGVVGIKVDKGVVPLAGTNGETTTQGLDGLSERCAQYKKDGADFAKWRCVLKIGEHTPSSLAIMENANVLARYASICQQNGIVPIVEPEILPDGDHDLKRCQYVTEKVLAAVYKALSDHHIYLEGTLLKPNMVTPGHACTQKYSHEEIAMATVTALRRTVPPAVPGITFLSGGQSEEEASINLNAINKCPLLKPWALTFSYGRALQASALKAWGGKKENLKAAQEEYVKRALANSLACQGKYTPSGKAGAAASESLFISNHAY
- Tagg (pH 7.1) ([1]; heated from 25° C. to 95° C.): 48
- SGF Half-life (t½) [3]: 12 s
